The experiment concerns the target H1G101C, a mutant of X. laevis linker histone H1°, labeled with Cy5 (Xenopus laevis) (UniProt P22844).

N-terminally His6-tagged yeast Nap1, sequence (P25293 whole entry): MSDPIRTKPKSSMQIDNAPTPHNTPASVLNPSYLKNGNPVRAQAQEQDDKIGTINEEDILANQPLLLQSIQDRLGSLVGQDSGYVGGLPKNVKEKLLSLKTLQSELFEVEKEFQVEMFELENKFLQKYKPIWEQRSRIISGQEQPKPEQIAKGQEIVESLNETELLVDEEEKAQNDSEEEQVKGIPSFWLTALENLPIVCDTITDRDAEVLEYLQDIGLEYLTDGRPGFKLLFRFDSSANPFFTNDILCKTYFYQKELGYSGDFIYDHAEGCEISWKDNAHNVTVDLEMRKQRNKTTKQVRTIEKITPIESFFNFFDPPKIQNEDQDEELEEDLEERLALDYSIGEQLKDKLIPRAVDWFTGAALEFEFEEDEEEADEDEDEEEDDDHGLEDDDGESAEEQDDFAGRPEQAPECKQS

The substance “N-terminally His6-tagged yeast Nap1 (from UniProt P25293 1-417) (natural protein)” returned a percent of nucleosomes still bound with H1 with 60 nM Nap1 of 17.5%.

The record behind these values is publication PMC5436050.
